Assay: yeast display, Sf9 membrane polyspecificity reagent, FACS + sequencing; frameworks hold sequencing errors
Summary of the method: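 Sorting gates, low and high (top ~1%), were placed on anti-HA fluorescence to track expression and on streptavidin fluorescence to track reagent binding. A clone's polyreactivity label is taken from the gate it came out of. The reagent was 10% biotinylated, detergent-solubilized Sf9 membrane, applied for 1 hour at 4 °C to galactose-induced yeast display cells.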

QVQLVESGGGLVQAGGSLRLSCAASGLTFKVYDMGWYRKAPGKERELVAAIWSDGDTYYADSVKGRFTISRDNAKNTVYLQMNSLKPEDTGVYYCAAVPGCTVHFVYGNKYDYWGQGTQVTVSS
polyreactivity (PSR sort gate): low polyreactivity

QVQLVESGGGLVQAGGSLRLSCAASGLTFKYYTMGWYRQAPGKERELVADISRTGRTSYADSVKGRFTISRDNAKNTVYLQMNSLKPEDTAVYYCNALAGIAQRRTGYYNPGDYWGQGTQVTVSS
polyreactivity (PSR sort gate): high polyreactivity

QVQLVESGGGLVQAGGSLRLSCAASGLTFLDYDMGWYRQAPGKERELVADIDWSGGNTYYADSVKGRFTISRDNAKNTVYLQMNSLKPEDTAVYYCNTVTEAVTRRYDYWGQGTQVTVSS
polyreactivity (PSR sort gate): low polyreactivity

QVQLVESGGGLVQAGGSLRLSCAASGLTFLKYAMGWYRQAPGKERELVAAITGSGGRTYYADSVKGRFTISRDNSKNTVYLHMNSLKPEDTAVYYCAADDYFHDDYWGLGTQVTVSS
polyreactivity (PSR sort gate): high polyreactivity

QVQLVESGGGLVQAGGSLRLSCAASGLTFLLNAMGWYRQAPGKERELVAAITWRGGRTYYADSVKGRFTISRDNAKNTVYLQMNSLKPEDTAVYYCAAVPVVQSQPTYYYWGQGTQVTVSS
polyreactivity (PSR sort gate): high polyreactivity

QVQLVESGGGLVQAGGSLRLSCAASGLTFLYNAMGWYRRATGKERELVASITNGGSTNYADSVKGRFTISRDNEKNTVYLQMNSLKPEDTAVYYCAKAAVDVGQRTPWEYDYWGQGTQVTVSS
polyreactivity (PSR sort gate): low polyreactivity

QVQLVESGGGLVQAGGSLRLSCAASGLTFLYYAMGWYRQAPGKERELVAAISRSGGSTYYADSVKGRFTISRDNAKNTVYLQMNSLKPEDTAVYYCAAGRRGGKQGGTRGGDYWGQGTQVTVSS
polyreactivity (PSR sort gate): high polyreactivity

QVQLVESGGGLVQAGGSLRLSCAASGLTFLYYSMGWYRQAPGKERELVAAISTRGGSTYYADSVKGRFTISRDNAKNTVYLQMNSLKPEDTAVYYCNAKLIVTPGRGDYWGQGTQVSVSS
polyreactivity (PSR sort gate): high polyreactivity

QVQLVESGGGLVQAGGSLRLSCAASGLTFNFYAMGWYRQAPGKEREFVAAISRSGGSTHYADSVKGRFTISRDNAKYTVYLQMNSLKPEDTAVYYCAADGGRKNYDYWGQGTQVTVSS
polyreactivity (PSR sort gate): high polyreactivity

QVQLVESGGGLVQAGGSLRLSCAASGLTFNKYAMGWYRQGPGKERELVAAISYRGGSTYYADSVKGRFTISRDNAKNTVYLQMNSLKPEDTAVYYCAVRYWALDDQYRYGSWGQGTQVTVSS
polyreactivity (PSR sort gate): high polyreactivity

QVQLVESGGGLVQAGGSLRLSCAASGLTFPENAMGWYRQAPGKEREMVASISDSDGITFYADSVKGSFTISRDNAKNTVYLQMNSLKPEDTAVYYCAADVAIAIPFSYDYWGQGSQVTVSS
polyreactivity (PSR sort gate): low polyreactivity

QVQLVESGGGLVQAGGSLRLSCAASGLTFPIYAMGWYRQAPGKEREYVAVITTSGGSTYYADSVKGRFTISRDNAKNTVYLQMNSLKPEDTAVYYCNARGIRHYYWGQGTQVTVSS
polyreactivity (PSR sort gate): high polyreactivity

QVQLVESGGGLVQAGGSLRLSCAASGLTFPSYAMGWYRQAPGKERELVAAISSGDSTNYADSVKGRFTISRDNAKNTVYLQMNSLKPEDTAVYYCAVGLPHGGRRLYGSWYRFDYWGQGTQVTVSS
polyreactivity (PSR sort gate): low polyreactivity

QVQLVESGGGLVQAGGSLRLSCAASGLTFPSYAMGWYRQAPGKVSELVAAISARGGGTYYADSVKGRFTISRDNAKNTVYLQMNSLKPEDTAVYYCAADPVYAGPGYDYWGQGTQVTVSS
polyreactivity (PSR sort gate): high polyreactivity

QVQLVESGGGLVQAGGSLRLSCAASGLTFPYNVMGWYRQAPGKERELVASITSVGTTDYADSVKGRFTISRDNAKNTVYLQMNSLNPEDTAVYYCAADVTLFYWWYGKEDYDYWGQGTEVTVSS
polyreactivity (PSR sort gate): low polyreactivity

QVQLVESGGGLVQAGGSLRLSCAASGLTFQEYAMGWYRQAPGKERELVAAISWSGGSTYYADSVKGRFTISRDNAKNTVYLQMNSLKPEDTAVYYCAAEAYEEFITGWYAYDYWGQGTQVTVSS
polyreactivity (PSR sort gate): high polyreactivity

QVQLVESGGGLVQAGGSLRLSCAASGLTFQGYAMGWYRQAPGKERELVAAISSSGDITYYADSVKGRFTISRDNAKNTVYLQMNSLKPEDTAVYYCAAEAEYYVYGTYDYWGQGTQVTVSS
polyreactivity (PSR sort gate): high polyreactivity

QVQLVESGGGLVQAGGSLRLSCAASGLTFQKNVMGWYRQAPGKERELVAAIRASSSSTYYADSVKGRFTISRDNAKNTVYLQMNSLKPEDTAVYYCAAPRLIKYDYWGQGTQVTVSS
polyreactivity (PSR sort gate): high polyreactivity

QVQLVESGGGLVQAGGSLRLSCAASGLTFQPNVMGWYRQATGKERELVAAISVRTTRTYYADSVKGRFTISRDNAKNTVYLQMNSLKPEDTAVYYCNTDISRNYYWALYGYWGQGTQVTVSS
polyreactivity (PSR sort gate): low polyreactivity

QVQLVESGGGLVQAGGSLRLSCAASGLTFQWYTMGWYRQAPGKERELVAAISSRGGSTYYADSVKGRFTISRDNAKNTVYLQMNSLKPEDTAVYYCAVRLRWYFFLMDYWGQGTQVTVSS
polyreactivity (PSR sort gate): high polyreactivity

QVQLVESGGGLVQAGGSLRLSCAASGLTFQYYVMGSYRQAPGKERELVAAISSGGSTYYADSVKGRFTISRDNAKNTVYLQMNSLKPEDTAVYYCAAEAGYAYPLWPYTFPFEYWGQGTQVTVSS
polyreactivity (PSR sort gate): low polyreactivity

QVQLVESGGGLVQAGGSLRLSCAASGLTFRKYAMGWYRPAPGKEREWVAAITRGGSTNYADSVKGRFTISRDNAKNTVYLQMNSLKPEDTAVYYCAAQYTYRFPYPGYATTHDYWGQGTQVTVSS
polyreactivity (PSR sort gate): high polyreactivity

QVQLVESGGGLVQAGGSLRLSCAASGLTFRPYAMGWYRPAPGKERELVAAISTTGGSTYYADSVKGRFTISRDNAKNTVYLQMNSLKPEDTAVYYCAAPTSQRRVLSYRPYGYWGQGTQVTVSS
polyreactivity (PSR sort gate): high polyreactivity

QVQLVESGGGLVQAGGSLRLSCAASGLTFRQYAMGWYRQAPGKERELVAAIDTGASTNYADSVKGRFTISRDNAKNTVYLQMNSLKPEDTAGYYCNAELWYGPDELTGDYWGQGTQVTVSS
polyreactivity (PSR sort gate): low polyreactivity

QVQLVESGGGLVQAGGSLRLSCAASGLTFRWYAMGWYRQAPGKERELVAAISSTGRTNYADSVKGRFTISRDNAKNTVYLQMNSLKPEDTAVYYCNKTQEFVHKYELDYWGQGTQVTVSS
polyreactivity (PSR sort gate): low polyreactivity

QVQLVESGGGLVQAGGSLRLSCAASGLTFRYYSMGWYRQAPGKERELVAAISRRSGSTYYADSVKGRFTISGDNAKNTVYLQMNSLKPEDTAVYYCNADSTITGNLKRYDYWGQGTQVTVSS
polyreactivity (PSR sort gate): high polyreactivity

QVQLVESGGGLVQAGGSLRLSCAASGLTFSFNAMGWYRQAPGKEREFVAAISWSGGSTYYADSVKGRFTISRDNAKITVYLQMNSLKPEDTAVYYCAAESRITRYRHTRYYYWGQGTQVTVSS
polyreactivity (PSR sort gate): high polyreactivity

QVQLVESGGGLVQAGGSLRLSCAASGLTFSLNAMGWYRPAPGKERELVAAIRGSGGSTYYADSVKGRFTISRDNAKNTVYLQMNSLKPEDTAVYYCAASPKRVLRESGVYWGQGTQVTVSS
polyreactivity (PSR sort gate): high polyreactivity

QVQLVESGGGLVQAGGSLRLSCAASGLTFSLNAMGWYRQAPGKERELVAAISFSGGSTYYADSVKGRFTISRDNAKNTVYLQMNSLKPEDTAVYYCAVRKRVGRGRYGYWGQGTQVTVSS
polyreactivity (PSR sort gate): high polyreactivity

QVQLVESGGGLVQAGGSLRLSCAASGLTFSLYAMGWYRQAHGKERELVAAISWTGGSTYYADSVKGRFTISRDNAKNTVYLQMNSLKPEDTAVYYCNARYTLFARYGYDYWGQGTQVTVSS
polyreactivity (PSR sort gate): low polyreactivity

QVQLVESGGGLVQAGGSLRLSCAASGLTFSRNAMGWYRQAPGKEWELVAAISGSGGSTYYADSVKGRFTISRDNAKYTVYLQMNSLKPEDTAVYYCAKVSRSKQKFDYWGQGTQVTVSS
polyreactivity (PSR sort gate): high polyreactivity

QVQLVESGGGLVQAGGSLRLSCAASGLTFSRYAMGWYRQAPGKERELVAAITSIGGSTYYADSVKGRFTISRDNAKNTVYLQMNSLKPEDTAVYYCRAFFRRDYWGQGTQVNVSS
polyreactivity (PSR sort gate): high polyreactivity

QVQLVESGGGLVQAGGSLRLSCAASGLTFSSNAMGWSRQAPGKERELVAVITNGGSTNYADSVKGRFTISRDNAKNTVYLQMNSLKPEDTAVYYCAKDGGPAQDIGMDYWGQGTQVTVSS
polyreactivity (PSR sort gate): low polyreactivity

QVQLVESGGGLVQAGGSLRLSCAASGLTFSVYAMGWSRQAPGKERELVASITRSGGSTYYADSVKGRFTISRDNAKNTVYLQMNSLKPEDTADYYCNADKYYGFDYWGQGTQVTVSS
polyreactivity (PSR sort gate): high polyreactivity

QVQLVESGGGLVQAGGSLRLSCAASGLTFSYYAMGWYRQAPGKERELVAAIDYSGGTTYADSVKGRFTISRDNAKNTVYLQMNSLKPEDTAVYYCAREWYQYSPYHRFDYWGQGTQVTVSS
polyreactivity (PSR sort gate): high polyreactivity

QVQLVESGGGLVQAGGSLRLSCAASGLTFSYYTMGWYRPAPGKERELVAAITSSSGRTYYADSVKGRFSISRDNAKNTVYLQLNSLKPEDTAVYYCAADRWYREYDYWGLGTQVTVSS
polyreactivity (PSR sort gate): low polyreactivity

QVQLVESGGGLVQAGGSLRLSCAASGLTFTGNAMGWYRQAPGKEREFVAAIRWSAGSTYYADSVKGRFTISRDNAKNTVYLQMNSLKPEDTAVYYCNAALNVSGHYPNDYWGQGTQVNVSS
polyreactivity (PSR sort gate): low polyreactivity

QVQLVESGGGLVQAGGSLRLSCAASGLTFTKNVMGWYRQAPGKERELVAVISRSGGSTYYADSVKGRFTISRDNAKNTVYLQMNSLKPEDTAVYYCNVKGPGPSRGNYWGQGTQVTVSS
polyreactivity (PSR sort gate): low polyreactivity

QVQLVESGGGLVQAGGSLRLSCAASGLTFTPNAMGWYRQAPGKEREFVAAITWRGGRTYYADSVKGRFTISRDNAKNTVYLQMNSLKPEDTAVYYCAVTYRPTYQLDYWGQGTQVTVSS
polyreactivity (PSR sort gate): high polyreactivity

QVQLVESGGGLVQAGGSLRLSCAASGLTFTRYAMGWYIQAPGKEREMVAAISKNGGSTYYADSVKGRFTISRDNAKNTVYLQMNSLKPEDTAVYYCAARRSTSYPAGYDYRGQGTQVTVSS
polyreactivity (PSR sort gate): high polyreactivity

QVQLVESGGGLVQAGGSLRLSCAASGLTFTSYAMGWYRQAPGKERELVAAIDWSGGRTYYADSVKGRFTISRDNAKNTVYLQMNSLKPEDTAVYYCAAYSRNRSLRFNYWGQGTQVTVSS
polyreactivity (PSR sort gate): high polyreactivity

QVQLVESGGGLVQAGGSLRLSCAASGLTFTSYAMGWYRQAPGKERELVAAITAGGVSTYYADSEKGRFTISRDNAKNTVYLQMNSLKPEDTAVYYCAVDPPYSNPITINEDYWGQGTQVTVSS
polyreactivity (PSR sort gate): low polyreactivity

QVQLVESGGGLVQAGGSLRLSCAASGLTFTTYTMGWYRQAPGKERELVAAISSRGGSTYYADSVKGRFTISRDNAKNTVYLQMNRLKPEDTAVYYCNAPRPHRMDWGQGTQVTVSS
polyreactivity (PSR sort gate): high polyreactivity
